Series [1] concerns the target chimeric receptor containing the extracellular domain of VEGFR-2, on Ba/F3 cells. In words: cell-based or functional assay.
The target in series [2] is T1, VEGFR-1-Ig (extracellular domain of human VEGFR-1 fused to the Fc portion of human IgG1) (human, UniProt P17948 27-758).
T1 construct: extracellular domain; Expressed in 293T cells, captured on protein A Sepharose; not shown: Fc portion of human IgG1
In words: precipitation of 35S-labeled ligand from conditioned medium by receptor-Ig on protein A Sepharose, SDS-PAGE. The method, then:
(§1) To further assess the interactions between VEGF-D and the VEGF receptors, VEGF-DΔNΔC was tested for its capacity to bind to soluble immunoglobulin fusion proteins comprising the extracellular domains of human VEGFR-1, human VEGFR-2 and human VEGFR-3. The corresponding fragment of VEGF-C, VEGF-CΔNΔC, was used for comparison. For binding experiments, 293T human embryonal kidney cells were transfected with plasmids encoding the soluble receptor-immunoglobulin fusion proteins VEGFR-1-Ig, VEGFR-2-Ig or VEGFR-3-Ig using the calcium-phosphate (Ca-phosphate) method. In these fusion proteins, the extracellular domain of the relevant VEGF receptor is fused to the Fc portion of human IgG₁. The cells were incubated for 24 hours after transfection, washed with Dulbecco's Modified Eagle's Medium (DMEM) containing 0.2% bovine serum albumin (BSA) and starved for 24 hours. Media were then collected and clarified by centrifugation, and fusion proteins were precipitated using protein A Sepharose beads. […] Metabolic labeling of 293-EBNA cells was carried out essentially as described (Joukov et al., 1997). The Sepharose beads were then washed twice with binding buffer (0.5% BSA, 0.02% Tween 20, 1 μg/ml heparin in phosphate buffered saline (PBS)) at 4° C. and once with PBS, boiled in Laemmli sample buffer, and proteins were then analyzed by SDS-PAGE.
(§2) In FIG. 3, precipitation of labeled VEGF₁₆₅, VEGF-CΔNΔC and VEGF-DΔNΔC by VEGFR-1-Ig, VEGFR-2-Ig and VEGFR-3-Ig was carried out as described above. The fusion proteins used for the precipitations are shown to the right. “Vector” denotes results of precipitations from medium derived from cells transfected with expression vector lacking sequence encoding the VEGFs. The molecular weight markers are indicated in kDa

Series [3] addresses T2, VEGFR-2-Ig (extracellular domain of human VEGFR-2 fused to the Fc portion of human IgG1) (human, UniProt P35968 20-764).
T2 construct: extracellular domain; Expressed in 293T cells, captured on protein A Sepharose; not shown: Fc portion of human IgG1
The series is described as above. The method, then:
as §1, §2

For series [4], the target named is T3, VEGFR-3-Ig (extracellular domain of human VEGFR-3 fused to the Fc portion of human IgG1) (human, UniProt P35916 25-775).
T3 construct: extracellular domain; Expressed in 293T cells, captured on protein A Sepharose; not shown: Fc portion of human IgG1
T3 sequence (looked up): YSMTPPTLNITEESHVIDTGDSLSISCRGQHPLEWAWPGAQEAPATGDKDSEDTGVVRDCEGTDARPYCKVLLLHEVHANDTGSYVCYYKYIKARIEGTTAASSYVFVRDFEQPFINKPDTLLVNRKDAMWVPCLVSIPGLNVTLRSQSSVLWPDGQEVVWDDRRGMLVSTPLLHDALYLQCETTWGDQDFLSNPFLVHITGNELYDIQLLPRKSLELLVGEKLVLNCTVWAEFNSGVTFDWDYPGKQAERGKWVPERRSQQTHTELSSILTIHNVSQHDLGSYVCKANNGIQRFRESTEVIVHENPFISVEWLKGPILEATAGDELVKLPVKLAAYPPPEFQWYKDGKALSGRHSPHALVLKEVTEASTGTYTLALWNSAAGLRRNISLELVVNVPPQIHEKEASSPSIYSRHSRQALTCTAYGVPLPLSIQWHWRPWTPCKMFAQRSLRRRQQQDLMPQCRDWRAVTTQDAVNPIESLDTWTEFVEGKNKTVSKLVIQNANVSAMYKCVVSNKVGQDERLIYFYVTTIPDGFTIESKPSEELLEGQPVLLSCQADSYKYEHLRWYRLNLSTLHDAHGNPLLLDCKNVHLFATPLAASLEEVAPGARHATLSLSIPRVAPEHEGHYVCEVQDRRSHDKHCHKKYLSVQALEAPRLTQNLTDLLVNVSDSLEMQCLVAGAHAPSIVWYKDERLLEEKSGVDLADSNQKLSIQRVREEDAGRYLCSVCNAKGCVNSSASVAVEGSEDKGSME
The series is described as above. Here is the method: as §1, §2

Series [5] deals with the molecule itself. As to the kind of experiment: size exclusion chromatography and SDS-PAGE (self-association). A general note: SEC sorts molecules by how far they enter the pores of the column.

T1 sequence (P17948 27-758): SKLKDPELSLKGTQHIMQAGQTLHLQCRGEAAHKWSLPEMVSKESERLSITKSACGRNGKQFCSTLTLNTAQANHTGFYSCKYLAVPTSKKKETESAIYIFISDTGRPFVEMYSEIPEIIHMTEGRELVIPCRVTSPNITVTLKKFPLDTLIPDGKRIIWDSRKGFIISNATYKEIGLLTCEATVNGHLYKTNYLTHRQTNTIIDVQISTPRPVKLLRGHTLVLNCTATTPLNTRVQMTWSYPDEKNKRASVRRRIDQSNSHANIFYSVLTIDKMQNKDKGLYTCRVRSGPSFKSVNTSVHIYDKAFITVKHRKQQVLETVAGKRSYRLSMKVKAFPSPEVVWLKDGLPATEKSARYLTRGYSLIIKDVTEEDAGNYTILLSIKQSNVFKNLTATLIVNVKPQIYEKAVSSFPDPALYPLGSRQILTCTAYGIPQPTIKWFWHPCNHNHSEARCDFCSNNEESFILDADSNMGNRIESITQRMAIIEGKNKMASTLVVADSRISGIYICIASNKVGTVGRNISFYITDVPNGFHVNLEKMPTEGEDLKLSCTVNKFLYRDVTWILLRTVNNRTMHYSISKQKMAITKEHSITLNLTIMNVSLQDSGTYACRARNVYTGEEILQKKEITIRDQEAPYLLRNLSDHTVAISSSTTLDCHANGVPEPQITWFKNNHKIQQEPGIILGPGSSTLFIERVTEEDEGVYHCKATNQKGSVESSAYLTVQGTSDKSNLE
T2 sequence (P35968 20-764): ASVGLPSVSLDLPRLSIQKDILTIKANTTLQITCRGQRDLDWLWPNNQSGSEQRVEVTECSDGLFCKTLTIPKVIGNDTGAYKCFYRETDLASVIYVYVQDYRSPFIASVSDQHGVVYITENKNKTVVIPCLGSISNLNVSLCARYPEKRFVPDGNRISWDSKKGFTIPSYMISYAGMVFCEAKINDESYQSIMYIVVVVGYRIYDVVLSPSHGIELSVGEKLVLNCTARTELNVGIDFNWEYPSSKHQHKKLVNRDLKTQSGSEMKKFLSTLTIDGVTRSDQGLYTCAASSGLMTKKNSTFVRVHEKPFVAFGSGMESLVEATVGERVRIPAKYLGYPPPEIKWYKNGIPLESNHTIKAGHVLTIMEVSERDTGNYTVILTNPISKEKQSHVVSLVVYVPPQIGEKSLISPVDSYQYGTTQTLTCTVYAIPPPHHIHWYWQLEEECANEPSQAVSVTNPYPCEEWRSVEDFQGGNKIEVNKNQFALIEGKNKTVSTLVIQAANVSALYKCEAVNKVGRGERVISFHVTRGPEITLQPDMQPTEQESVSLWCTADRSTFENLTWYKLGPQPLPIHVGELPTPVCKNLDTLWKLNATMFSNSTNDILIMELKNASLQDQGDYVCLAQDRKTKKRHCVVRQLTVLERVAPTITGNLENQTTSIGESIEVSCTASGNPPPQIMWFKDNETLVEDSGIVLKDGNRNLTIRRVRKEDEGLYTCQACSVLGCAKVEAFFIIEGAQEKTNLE

Turning to “VEGF-DΔNΔC non-covalent homodimer (size exclusion peak 2, 49 kDa) (from UniProt O43915 93-201) (ligand)”, the VEGFR-2 binding activity (Ba/F3 cell bioassay) of size exclusion peak 1 (% of that in peak 2) in series [1] amounted to 1.

B1: VEGF-DΔNΔC (human VEGF-D amino acid residues 93 to 201 tagged with the FLAG octapeptide adjacent to the N-terminus) (ligand, not shown: small tags and cut ends)
chain: FYDIETLKVIDEEWQRTQCSPRETCVEVASELGKSTNTFFKPPCVNVFRCGGCCNEESLICMNTSTSYISKQLFEISVPLTSVPELVPVKVANHTGCKCLPTAPRHPYS
notes: purified from COS cells for the enzyme immunoassay; human VEGF-D?N?C
Consider B1, for which the values for the binding result in series [2], in series [3] and in series [4] were “no binding”, “binds” and “binds”, respectively.

B2: VEGF-DΔNΔC monomer (size exclusion peak 3, 25 kDa) (ligand)
chain: FYDIETLKVIDEEWQRTQCSPRETCVEVASELGKSTNTFFKPPCVNVFRCGGCCNEESLICMNTSTSYISKQLFEISVPLTSVPELVPVKVANHTGCKCLPTAPRHPYS
notes: also called VEGF-D?N?C monomer; monomeric form of VEGF-D?N?C; not shown: FLAG octapeptide tag at the N-terminus
With B2, the binding result in series [5] is reported as “binds”.

B3: human VEGF165 (ligand, UniProt P15692-4 27-191, looked up)
chain: APMAEGGGQNHHEVVKFMDVYQRSYCHPIETLVDIFQEYPDEIEYIFKPSCVPLMRCGGCCNDEGLECVPTEESNITMQIMRIKPHQGQHIGEMSFLQHNKCECRPKKDRARQENPCGPCSERRKHLFVQDPQTCKCSCKNTDSRCKARQLELNERTCRCDKPRR
notes: 35S-labeled conditioned medium
Consider B3, for which the values for the binding result in series [2] and in series [4] were “binds” and “no binding”, respectively.

Values taken from patent publication US20020127222A1 (VEGENICS, published 2002).
